{
  "source": "the nanobody polyreactivity screen of Harvey et al. (2022)",
  "data": [
    {"assay": "yeast display, Sf9 membrane polyspecificity reagent, FACS + sequencing; frameworks hold sequencing errors", "method_in_brief": "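A nanobody's polyreactivity label depends on the gate it was sorted from. Yeast display cells were stained with 10% biotinylated, detergent-solubilized Sf9 membrane reagent for 1 hour at 4 °C, enriched on streptavidin microbeads and sorted by FACS. The low and high (top ~1%) gates were set on anti-HA fluorescence for expression and streptavidin fluorescence for reagent binding.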", "values": [
      {"sequence": "QVQLVESGGGLVQAGGSLRLSCAAAGFIFRYYAMGWYRPAPGKVRELVAAITNSGVSTYYADSVKGRFTISRDNAKNTVYLQMNRLKPEDTAVYYCAATYRTRTSQYDYWGQGTQVTVSS", "polyreactivity (PSR sort gate)": "high polyreactivity"},
      {"sequence": "QVQLVESGGGLVQAGGSLRLSCAAAGITFTVYAMGWYRPAPGKERELVAAISQSGGSTYYADSVKGRFTISRDNAKNTVSLQMNSMKPEDTAVYSCNADTVWVPYRTYIPFDYWGQGTQVTVSS", "polyreactivity (PSR sort gate)": "low polyreactivity"},
      {"sequence": "QVQLVESGGGLVQAGGSLRLSCAAAGRIFGINALGWYRQAPGKERELVAAISWRSGSTYYADSVKGRFTISRDNAKNTVYLQMNSLKPEATAVYYCAARYFVRNYYQNDYWGQGTQVTVSS", "polyreactivity (PSR sort gate)": "low polyreactivity"},
      {"sequence": "QVQLVESGGGLVQAGGSLRLSCAAAGRSFGRNAMGWYRQAPGKERELVAAISTSSGSTYYADSVKGRFTISRDNAKNTVYLQMNSLKPEDTAGYYCAARDDSYRRYEYGYWGQGTQVTVSS", "polyreactivity (PSR sort gate)": "high polyreactivity"},
      {"sequence": "QVQLVESGGGLVQAGGSLRLSCAAAGRTFGDYDMGWYRQAPGKERELVAAITSDGTTYYADYVKGRFTISGDNAKNTVYLQMNSLKPEDTAVYYCAADYWYVSWYDYWGHGTQVTVSS", "polyreactivity (PSR sort gate)": "low polyreactivity"},
      {"sequence": "QVQLVESGGGLVQAGGSLRLSCAAAGSIFRINDMGWYRQATGKERELVAAITFSGGSTYADSVKGRFTISRDNAKNTVYLQMNSLKPEDTAVYYCNADGAYWTDYYLYDYWGHGTQVTVSS", "polyreactivity (PSR sort gate)": "low polyreactivity"},
      {"sequence": "QVQLVESGGGLVQAGGSLRLSCAACGFIFYYNAMGWYRQAHGKVRELVAAISSSAGSTYYADSVKGRFTISRDNAKNTVYLQMNSLKPEDTAVYDCAASRPPNTSNTGYGSWGQGTQVTVSS", "polyreactivity (PSR sort gate)": "low polyreactivity"},
      {"sequence": "QVQLVESGGGLVQAGGSLRLSCAACGFTFQYYAMGWYRQAPGKVRELVATITTSGGNTYYADSVKGRFTISRDNAKNTVYLQMNSLKPEDTAVYYCAARSYRASSRGYVYWGQGTQVTVSS", "polyreactivity (PSR sort gate)": "high polyreactivity"},
      {"sequence": "QVQLVESGGGLVQAGGSLRLSCAACGITFPTNMGWYRQAPGKERELVAAIRLSGGSTSYADSVKGRFTISRDNAKNSVYLQMTSLKPEDTAVSSCAAGGYPGGEDYWGQGTQVTVSS", "polyreactivity (PSR sort gate)": "low polyreactivity"},
      {"sequence": "QVQLVESGGGLVQAGGSLRLSCAACGLTITFYAMGWYRQAPGKERELVAAISRSGGSTYYADSVKGRFTISRDNAKNTVYLQMNSLKPEVTAVYYCAVVGGYYEFDYEGDYWGQGTQVTVSS", "polyreactivity (PSR sort gate)": "low polyreactivity"},
      {"sequence": "QVQLVESGGGLVQAGGSLRLSCAACGRIFDRNAMGWYRQAPGKERELVAAITRSGGRTYYADSVKGRFTISRDNAKNSVYLQMNSLKPEDTAVYYCNRGYPRSVVHYNSWGQGTQVTVSS", "polyreactivity (PSR sort gate)": "low polyreactivity"},
      {"sequence": "QVQLVESGGGLVQAGGSLRLSCAACGRILTYYAMGWYRQAPGKERELVAAISWRAGSTYYADSVKGRFTISRDNAKNTVYLQMNSLKPEDTAVYYCAAKPYYIPTRTYSHYNYWGQGTQVTVSS", "polyreactivity (PSR sort gate)": "high polyreactivity"},
      {"sequence": "QVQLVESGGGLVQAGGSLRLSCAACGRTFYNYAMGWYRQAPGKERELVAAITRGGSTYYADSVKGRFTISRDNAKNTVYLQMNSLKPEDTAVYYCNAVFPYEHEEYDYWGQGTQVTVSS", "polyreactivity (PSR sort gate)": "high polyreactivity"},
      {"sequence": "QVQLVESGGGLVQAGGSLRLSCAACGSIFYLNAMGWYRQAPGKERELVAAITNGGSTYADSVKGRFTISRDNAKNTVYLQMNSLKPEDTAVYYCATRSWELGDYWGQGTQVTVSS", "polyreactivity (PSR sort gate)": "low polyreactivity"},
      {"sequence": "QVQLVESGGGLVQAGGSLRLSCAACGSTFHWNTMVWYRQAPGKERELVAAITYSGGRTYYADSVKGRFTISRDNAKNTVYLQMNSLKPEDTAVYYCAARYWRGSVTSYYYWGQGTQVTVSS", "polyreactivity (PSR sort gate)": "high polyreactivity"},
      {"sequence": "QVQLVESGGGLVQAGGSLRLSCAACGSTFNGYTMGWYRQAPGKERELVAAISKSGGRTYYADSVKGRFTISRDNAKNTVYLQMNSLKPEDTAVYYCNKLTQSSYGWGQGTQVTVSS", "polyreactivity (PSR sort gate)": "high polyreactivity"},
      {"sequence": "QVQLVESGGGLVQAGGSLRLSCAACGSTFPGNAKGWYRQAPGKERELVAAISSSGGITYYADSVKGRFTISRDNAKNTVYLQMNSLIPEDTAVYYCSWGHGTQVTVSS", "polyreactivity (PSR sort gate)": "low polyreactivity"},
      {"sequence": "QVQLVESGGGLVQAGGSLRLSCAACGSTFRYNTMGWYRQATGTEREVVAAISSAATTNYADSVKGRFTISRDNAKNTVYLQLNSLNPEDTALYYCARGYSWSVGYPRVQDMDYWGQGTQVTVSS", "polyreactivity (PSR sort gate)": "high polyreactivity"},
      {"sequence": "QVQLVESGGGLVQAGGSLRLSCAAFGRIFQYYAMGWYRQAPGKERELVAAITRSGGSTYYADSVKGRFTISRDNAKNTVYLQMNSLKPEDTAVYYCAAYSRYTVREGYDYWGQGTQVTVSS", "polyreactivity (PSR sort gate)": "high polyreactivity"},
      {"sequence": "QVQLVESGGGLVQAGGSLRLSCAAPGNTFQYYAMGWSRQAPGKEREFVAAISRRGGSTYYADSVKGRFTISRDNAKNTVYLQMNSLKPEDTAVYYCNKVIFLSQSSYSFLYAYDYWGQGTQVTVSS", "polyreactivity (PSR sort gate)": "high polyreactivity"},
      {"sequence": "QVQLVESGGGLVQAGGSLRLSCAAPGSIFYQNAMGGYRQAPGKERELVAAISRSGGSTYYADSVKGRFTISRDNAKNTVYLQMNSLKPEDTAVYYCAARISRQRSYSRDYWGQGTQVTVSS", "polyreactivity (PSR sort gate)": "high polyreactivity"},
      {"sequence": "QVQLVESGGGLVQAGGSLRLSCAASAAIFTKNAMGWYRQAPAKERELVAAITGSGASTYYADSVKGRFTISRDNAKNTVYLQMNSLKPEDTAVYYCNTDSPYGWEGEFDYWGQGTQVTVSS", "polyreactivity (PSR sort gate)": "high polyreactivity"},
      {"sequence": "QVQLVESGGGLVQAGGSLRLSCAASAFIFGHYAMGWYRQAPGKERELVAGINSSGGSTHYADSVKGRFTISRDNAKKTVYLQMNSLKPEDTAVYYCAVAARTRARVLYGYDYWGQGTQVTVSS", "polyreactivity (PSR sort gate)": "low polyreactivity"},
      {"sequence": "QVQLVESGGGLVQAGGSLRLSCAASAFIFSRNAMGWYRQAPGKDRELVAAISLRGGSTSYADSVKGRFTISRDTAKNTVYIQMNSLKPEDTAVYYCAKYDRNTYGYWGQGTEVTVSS", "polyreactivity (PSR sort gate)": "low polyreactivity"},
      {"sequence": "QVQLVESGGGLVQAGGSLRLSCAASAFIIHRYAMGWYRQAPGKERELVAVITSGGGSTYYADSVKGRFTISRDNAKNTVYLQMNCLKAEDTAVYYCAAFQPDNSRYRYDYWGQGTQVTVSS", "polyreactivity (PSR sort gate)": "high polyreactivity"},
      {"sequence": "QVQLVESGGGLVQAGGSLRLSCAASAFILYFNAMGWYRQAPGKESDLVAAISRGDGYTYADSVKGRFTISRDNAKNTVYLLMNRLNPEDTEVYYCNAGLGVVVTLYVGSGYDSWGHGTQVTVSS", "polyreactivity (PSR sort gate)": "low polyreactivity"},
      {"sequence": "QVQLVESGGGLVQAGGSLRLSCAASAGIFVVYGMGWYRQAPGKERELVAAISWRGGSTYYADSVKGRFTISRDNAKNTVYLQMNSLKPEDTAVYYCAADQYYGGYDYWGQGTQVTVSS", "polyreactivity (PSR sort gate)": "low polyreactivity"},
      {"sequence": "QVQLVESGGGLVQAGGSLRLSCAASAIILQRNDMGRYRQAPGKERELVANIRDGGITFADSVKGRFTISRDNAKNTVYLQMNSLKPEDTAVYYCARDDTSPGYGDQSSNAAYYYWGQGTQVTVSS", "polyreactivity (PSR sort gate)": "low polyreactivity"},
      {"sequence": "QVQLVESGGGLVQAGGSLRLSCAASAMAWYRQAPWKERELVATISATGGSTYYADSVKGRFTISRDNAKNTVYLQMNSLKPEDTAVYYCNKDPLVFVYWGQGTQVTVSS", "polyreactivity (PSR sort gate)": "low polyreactivity"},
      {"sequence": "QVQLVESGGGLVQAGGSLRLSCAASAMGRYRQAPGKERELVAGITSSGGSTYYADSVKGRFTISRDNAKNTVYLQMNSLKPEDTAVYYCNADNAGYGYWSYPYYYWGQGTQVTVSS", "polyreactivity (PSR sort gate)": "low polyreactivity"},
      {"sequence": "QVQLVESGGGLVQAGGSLRLSCAASARIFGWNSMGWYRQAPGKERELVAAISWRGGSTYYADSVKGRFTISRDNAKNTVYLQMNSLKPEDTAVYYCNALYTRYVSQWFGYWGEGTQVTVSS", "polyreactivity (PSR sort gate)": "high polyreactivity"},
      {"sequence": "QVQLVESGGGLVQAGGSLRLSCAASARIFSQNAMGWYRQAPGKERELVAVISWSGVSTSYSDSVKGRFTISRDNAKNTVYLQMNSLKPEDTAVYYCAARRFYYYSRYPGYNSWGQGTLVTVSS", "polyreactivity (PSR sort gate)": "high polyreactivity"},
      {"sequence": "QVQLVESGGGLVQAGGSLRLSCAASARTFPWYAMGLYRQAPGKERELVAAISWTGGSTYYADSVKGRFTISRDNAKHTVYLQMNSLKPEDTAVYYCAASPWYLKYEYWGQGTQVTVSS", "polyreactivity (PSR sort gate)": "low polyreactivity"},
      {"sequence": "QVQLVESGGGLVQAGGSLRLSCAASARTFVWNAMGWYRQAPGKERELVAAIDWSGGSTYYADSVKGRFTISRDNAKNTVYFQMYSLKPEDTAVYYCAVAVWNGSEYWGQGSQVTVSS", "polyreactivity (PSR sort gate)": "high polyreactivity"},
      {"sequence": "QVQLVESGGGLVQAGGSLRLSCAASASIFYRNAMGWYRQAPGKERELVAGITTRGGSTYYADSVKGRFTISRDNAKNTVYLQMNSLNPEDTAVYYCNRRFPIYGSRFGYYYWGQGTQVTVSS", "polyreactivity (PSR sort gate)": "high polyreactivity"},
      {"sequence": "QVQLVESGGGLVQAGGSLRLSCAASASINSNYVMGWNRQAPGKERELVAAITRRGGRTYYADSVKGRFTISRDNAKNTVYLQMNSLKPEDTAVYYCAAERYPEAGSPYGTAEMDYWGQGTQVPVSS", "polyreactivity (PSR sort gate)": "low polyreactivity"},
      {"sequence": "QVQLVESGGGLVQAGGSLRLSCAASASTFTINAMGWYRQAPGKERELVAAISRSGGSTFYADSVKGRFTISRDNAKKTVYLQMNSLKPEDTAVYYCAARGVNRQGFNYWGQGTQVTVSS", "polyreactivity (PSR sort gate)": "high polyreactivity"},
      {"sequence": "QVQLVESGGGLVQAGGSLRLSCAASASTLNGNAKAWYRQAPGKDRELVAAITTSGGSTYYADSVKGRFTISRDNAKNTDSLQMHSQNPEDTAVYYCNKLIGRRYGWANGYDYWGQGTQVTVSS", "polyreactivity (PSR sort gate)": "low polyreactivity"},
      {"sequence": "QVQLVESGGGLVQAGGSLRLSCAASEGWYRQAPGKERELVAAISYIGGSTYYADSVKGRFTISRDNAKNTVYLQMNSLKPEDTAVYYCAKGYPDPQWGGVLAYDYWGQGTQVTVSS", "polyreactivity (PSR sort gate)": "low polyreactivity"},
      {"sequence": "QVQLVESGGGLVQAGGSLRLSCAASGAIFYYYAMGWYRQAPGKERELVATITASGGSTFYADSVKGRFTISRDNAKNTVYLQMNSLKPEDTAVYYCAATVYYTYWGQGTQVTVSS", "polyreactivity (PSR sort gate)": "low polyreactivity"},
      {"sequence": "QVQLVESGGGLVQAGGSLRLSCAASGATFERNAMGWYRQAPGKERELVAAITGSGGRTYYADSVKGRFTISRDNAKNTVYLQMNSLKPEDTAVYYCAKDTYYPSSRYNRYYYWGQGTQVTVSS", "polyreactivity (PSR sort gate)": "high polyreactivity"},
      {"sequence": "QVQLVESGGGLVQAGGSLRLSCAASGATFSVNAMGWYRQAPGKEREWVAAISSTGSTKYADSVKGRFTISRDNAKNPVYLQMNSLKPEDTAVYCAASNADYEYYPFSVWYFSPYDYWGHGTQVTVSS", "polyreactivity (PSR sort gate)": "low polyreactivity"},
      {"sequence": "QVQLVESGGGLVQAGGSLRLSCAASGCTFSIYAMGWYRQAPGKERELVAAFTGTVGSTYYADSVKVRFTISRDNAKNTVYLQMKSLKPEDTAVYYCNVDWFWNWRGYYWGQGTQVTVSS", "polyreactivity (PSR sort gate)": "low polyreactivity"}
    ]}
  ]
}
